Values of other authors in US20200069786A1, “COMPOSITION AND PROCESS FOR PREPARING VACCINE” (TREOS BIO ZRT., priority 2018, published 2020).
Like-named read-outs stand apart in the source and are kept apart here.

Tested on: TSA
[1] = TSA expression rate in Cervical cancer
[2] = TSA expression rate in Esophageal
[3] = TSA expression rate in GASTRIC cancer
[4] = TSA expression rate in LUNG cancer
[5] = TSA expression rate in PROSTATE cancer
[6] = TSA expression rate in MELANOMA

B1: PIWIL1 (protein, UniProt Q96J94 1-861, looked up)
Piwi-like protein 1: MTGRARARARGRARGQETAQLVGSTASQQPGYIQPRPQPPPAEGELFGRGRQRGTAGGTAKSQGLQISAGFQELSLAERGGRRRDFHDLGVNTRQNLDHVKESKTGSSGIIVRLSTNHFRLTSRPQWALYQYHIDYNPLMEARRLRSALLFQHEDLIGKCHAFDGTILFLPKRLQQKVTEVFSKTRNGEDVRITITLTNELPPTSPTCLQFYNIIFRRLLKIMNLQQIGRNYYNPNDPIDIPSHRLVIWPGFTTSILQYENSIMLCTDVSHKVLRSETVLDFMFNFYHQTEEHKFQEQVSKELIGLVVLTKYNNKTYRVDDIDWDQNPKSTFKKADGSEVSFLEYYRKQYNQEITDLKQPVLVSQPKRRRGPGGTLPGPAMLIPELCYLTGLTDKMRNDFNVMKDLAVHTRLTPEQRQREVGRLIDYIHKNDNVQRELRDWGLSFDSNLLSFSGRILQTEKIHQGGKTFDYNPQFADWSKETRGAPLISVKPLDNWLLIYTRRNYEAANSLIQNLFKVTPAMGMQMRKAIMIEVDDRTEAYLRVLQQKVTADTQIVVCLLSSNRKDKYDAIKKYLCTDCPTPSQCVVARTLGKQQTVMAIATKIALQMNCKMGGELWRVDIPLKLVMIVGIDCYHDMTAGRRSIAGFVASINEGMTRWFSRCIFQDRGQELVDGLKVCLQAALRAWNSCNEYMPSRIIVYRDGVGDGQLKTLVNYEVPQFLDCLKSIGRGYNPRLTVIVVKKRVNTRFFAQSGGRLQNPLPGTVIDVEVTRPEWYDFFIVSQAVRSGSVSPTHYNVIYDNSGLKPDHIQRLTYKLCHIYYNWPGVIRVPAPCQYAHKLAFLVGQSIHREPNLSLSNRLYYL
- TSA Expression Rate (ER) (BRAIN): 76%
- TSA Expression Rate (ER) (BREAST): 100%
- TSA Expression Rate (ER) (HCC): 40%
- TSA Expression Rate (ER) (OVARIAN): 68%
- TSA Expression Rate (ER) (PANCREATIC): 71%
- Expression Rate (ER) % (TSA expression rate in CRC): 48%
- Expression Rate (ER) % [1]: 83%
- Expression Rate (ER) % [2]: 70%
- Expression Rate (ER) % [3]: 76%
- Expression Rate (ER) % (TSA expression rate in Kidney): 52%
- Expression Rate (ER) % [4]: 15%
- Expression Rate (ER) % [5]: 4%

B2: KIF20A (protein, UniProt O95235 2-890, looked up)
Kinesin-like protein KIF20A: SQGILSPPAGLLSDDDVVVSPMFESTAADLGSVVRKNLLSDCSVVSTSLEDKQQVPSEDSMEKVKVYLRVRPLLPSELERQEDQGCVRIENVETLVLQAPKDSFALKSNERGIGQATHRFTFSQIFGPEVGQASFFNLTVKEMVKDVLKGQNWLIYTYGVTNSGKTHTIQGTIKDGGILPRSLALIFNSLQGQLHPTPDLKPLLSNEVIWLDSKQIRQEEMKKLSLLNGGLQEEELSTSLKRSVYIESRIGTSTSFDSGIAGLSSISQCTSSSQLDETSHRWAQPDTAPLPVPANIRFSIWISFFEIYNELLYDLLEPPSQQRKRQTLRLCEDQNGNPYVKDLNWIHVQDAEEAWKLLKVGRKNQSFASTHLNQNSSRSHSIFSIRILHLQGEGDIVPKISELSLCDLAGSERCKDQKSGERLKEAGNINTSLHTLGRCIAALRQNQQNRSKQNLVPFRDSKLTRVFQGFFTGRGRSCMIVNVNPCASTYDETLHVAKFSAIASQLVHAPPMQLGFPSLHSFIKEHSLQVSPSLEKGAKADTGLDDDIENEADISMYGKEELLQVVEAMKTLLLKERQEKLQLEMHLRDEICNEMVEQMQQREQWCSEHLDTQKELLEEMYEEKLNILKESLTSFYQEEIQERDEKIEELEALLQEARQQSVAHQQSGSELALRRSQRLAASASTQQLQEVKAKLQQCKAELNSTTEELHKYQKMLEPPPSAKPFTIDVDKKLEEGQKNIRLLRTELQKLGESLQSAERACCHSTGAGKLRQALTTCDDILIKQDQTLAELQNNMVLVKLDLRKKAACIAEQYHTVLKLQGQVSAKKRLGTNQENQQPNQQPPGKKPFLRNLLPRTPTCQSSTDCSPYARILRSRRSPLLKSGPFGKKY
- TSA Expression Rate (ER) (BRAIN): 58%
- TSA Expression Rate (ER) (LUNG): 95%
- TSA Expression Rate (ER) (OVARIAN): 65%
- TSA Expression Rate (ER) (PANCREATIC): 63%
- Expression Rate (ER) % [1]: 35%
- Expression Rate (ER) % [2]: 15%
- Expression Rate (ER) % [6]: 64%

B3: CEA (protein, UniProt P06731 35-685, looked up)
Cell adhesion molecule CEACAM5: KLTIESTPFNVAEGKEVLLLVHNLPQHLFGYSWYKGERVDGNRQIIGYVIGTQQATPGPAYSGREIIYPNASLLIQNIIQNDTGFYTLHVIKSDLVNEEATGQFRVYPELPKPSISSNNSKPVEDKDAVAFTCEPETQDATYLWWVNNQSLPVSPRLQLSNGNRTLTLFNVTRNDTASYKCETQNPVSARRSDSVILNVLYGPDAPTISPLNTSYRSGENLNLSCHAASNPPAQYSWFVNGTFQQSTQELFIPNITVNNSGSYTCQAHNSDTGLNRTTVTTITVYAEPPKPFITSNNSNPVEDEDAVALTCEPEIQNTTYLWWVNNQSLPVSPRLQLSNDNRTLTLLSVTRNDVGPYECGIQNELSVDHSDPVILNVLYGPDDPTISPSYTYYRPGVNLSLSCHAASNPPAQYSWLIDGNIQQHTQELFISNITEKNSGLYTCQANNSASGHSRTTVKTITVSAELPKPSISSNNSKPVEDKDAVAFTCEPEAQNTTYLWWVNGQSLPVSPRLQLSNGNRTLTLFNVTRNDARAYVCGIQNSVSANRSDPVTLDVLYGPDTPIISPPDSSYLSGANLNLSCHSASNPSPQYSWRINGIPQQHTQVLFIAKITPNNNGTYACFVSNLATGRNNSIVKSITVSASGTSPGLSA
- TSA Expression Rate (ER) (PANCREATIC): 60%

B4: GAGE-2 (protein, UniProt Q6NT46 1-116, looked up)
G antigen 2A: MSWRGRSTYRPRPRRYVEPPEMIGPMRPEQFSDEVEPATPEEGEPATQRQDPAAAQEGQDEGASAGQGPKPEAHSQEQGHPQTGCECEDGPDGQEMDPPNPEEVKTPEEGEKQSQC
- TSA Expression Rate (ER) (PANCREATIC): 17%

B5: ZNF165 (protein, UniProt P49910 1-485, looked up)
Zinc finger protein 165: MATEPKKAAAQNSPEDEGLLIVKIEEEEFIHGQDTCLQRSELLKQELCRQLFRQFCYQDSPGPREALSRLRELCCQWLKPEIHTKEQILELLVLEQFLTILPGDLQAWVHEHYPESGEEAVTILEDLERGTDEAVLQVQAHEHGQEIFQKKVSPPGPALNVKLQPVETKAHFDSSEPQLLWDCDNESENSRSMPKLEIFEKIESQRIISGRISGYISEASGESQDICKSAGRVKRQWEKESGESQRLSSAQDEGFGKILTHKNTVRGEIISHDGCERRLNLNSNEFTHQKSCKHGTCDQSFKWNSDFINHQIIYAGEKNHQYGKSFKSPKLAKHAAVFSGDKTHQCNECGKAFRHSSKLARHQRIHTGERCYECNECGKSFAESSDLTRHRRIHTGERPFGCKECGRAFNLNSHLIRHQRIHTREKPYECSECGKTFRVSSHLIRHFRIHTGEKPYECSECGRAFSQSSNLSQHQRIHMRENLLM
- TSA Expression Rate (ER) (BRAIN): 100%
- TSA Expression Rate (ER) (HCC): 52%
- TSA Expression Rate (ER) (LUNG): 21%
- Expression Rate (ER) % (TSA expression rate in CRC): 43%
- Expression Rate (ER) % [3]: 9%
- Expression Rate (ER) % (TSA expression rate in LEUKEMIAS): 52%

B6: PBK (protein, UniProt Q96KB5 1-322, looked up)
Lymphokine-activated killer …: MEGISNFKTPSKLSEKKKSVLCSTPTINIPASPFMQKLGFGTGVNVYLMKRSPRGLSHSPWAVKKINPICNDHYRSVYQKRLMDEAKILKSLHHPNIVGYRAFTEANDGSLCLAMEYGGEKSLNDLIEERYKASQDPFPAAIILKVALNMARGLKYLHQEKKLLHGDIKSSNVVIKGDFETIKICDVGVSLPLDENMTVTDPEACYIGTEPWKPKEAVEENGVITDKADIFAFGLTLWEMMTLSIPHINLSNDDDDEDKTFDESDFDDEAYYAALGTRPPINMEELDESYQKVIELFSVCTNEDPKDRPSAAHIVEALETDV
- TSA Expression Rate (ER) (BRAIN): 100%
- TSA Expression Rate (ER) (HCC): 64%
- Expression Rate (ER) % (TSA expression rate in BLADDER cancer): 43%

B7: IL13RA2 (protein, UniProt Q14627 27-380, looked up)
Interleukin-13 receptor …: DTEIKVNPPQDFEIVDPGYLGYLYLQWQPPLSLDHFKECTVEYELKYRNIGSETWKTIITKNLHYKDGFDLNKGIEAKIHTLLPWQCTNGSEVQSSWAETTYWISPQGIPETKVQDMDCVYYNWQYLLCSWKPGIGVLLDTNYNLFYWYEGLDHALQCVDYIKADGQNIGCRFPYLEASDYKDFYICVNGSSENKPIRSSYFTFQLQNIVKPLPPVYLTFTRESSCEIKLKWSIPLGPIPARCFDYEIEIREDDTTLVTATVENETYTLKTTNETRQLCFVVRSKVNIYCSDDGIWSEWSDKQCWEGEDLSKKTLLRFWLPFGFILILVIFVTGLLLRKPNTYPKMIPEFFCDT
- TSA Expression Rate (ER) (BRAIN): 95%
- Expression Rate (ER) % [4]: 12%
- Expression Rate (ER) % (TSA expression rate in PEDIATRIC): 58%

B8: TYR (protein, UniProt P14679 19-529, looked up)
Tyrosinase: HFPRACVSSKNLMEKECCPPWSGDRSPCGQLSGRGSCQNILLSNAPLGPQFPFTGVDDRESWPSVFYNRTCQCSGNFMGFNCGNCKFGFWGPNCTERRLLVRRNIFDLSAPEKDKFFAYLTLAKHTISSDYVIPIGTYGQMKNGSTPMFNDINIYDLFVWMHYYVSMDALLGGSEIWRDIDFAHEAPAFLPWHRLFLLRWEQEIQKLTGDENFTIPYWDWRDAEKCDICTDEYMGGQHPTNPNLLSPASFFSSWQIVCSRLEEYNSHQSLCNGTPEGPLRRNPGNHDKSRTPRLPSSADVEFCLSLTQYESGSMDKAANFSFRNTLEGFASPLTGIADASQSSMHNALHIYMNGTMSQVQGSANDPIFLLHHAFVDSIFEQWLRRHRPLQEVYPEANAPIGHNRESYMVPFIPLYRNGDFFISSKDLGYDYSYLQDSDPDSFQDYIKSYLEQASRIWSWLLGAAMVGAVLTALLAGLVSLLCRHKRKQLPEEKQPLLMEKEDYHSLYQSHL
- TSA Expression Rate (ER) (BRAIN): 91%
- TSA Expression Rate (ER) (THYROID): 0%
- Expression Rate (ER) % [6]: 87%

B9: ODF4 (protein, UniProt Q2M2E3 1-257, looked up)
Outer dense fiber protein 4: MDAEYSGNEFPRSEGERDQHQRPGKERKSGEAGWGTGELGQDGRLLSSTLSLSSNRSLGQRQNSPLPFQWRITHSFRWMAQVLASELSLVAFILLLVVAFSKKWLDLSRSLFYQRWPVDVSNRIHTSAHVMSMGLLHFYKSRSCSDLENGKVTFIFSTLMLFPINIWIFELERNVSIPIGWSYFIGWLVLILYFTCAILCYFNHKSFWSLILSHPSGAVSCSSSFGSVEESPRAQTITDTPITQEGVLDPEQKDTHV
- TSA Expression Rate (ER) (BREAST): 63%
- Expression Rate (ER) % [5]: 0%
